B1: CD133 (prominin-1): N206Q (protein)
parent chain: MALVLGSLLLLGLCGNSFSGGQPSSTDAPKAWNYELPATNYETQDSHKAGPIGILFELVHIFLYVVQPRDFPEDTLRKFLQKAYESKIDYDKPETVILGLKIVYYEAGIILCCVLGLLFIILMPLVGYFFCMCRCCNKCGGEMHQRQKENGPFLRKCFAISLLVICIIISIGIFYGFVANHQVRTRIKRSRKLADSNFKDLRTLLNETPEQIKYILAQYNTTKDKAFTDLNSINSVLGGGILDRLRPNIIPVLDEIKSMATAIKETKEALENMNSTLKSLHQQSTQLSSSLTSVKTSLRSSLNDPLCLVHPSSETCNSIRLSLSQLNSNPELRQLPPVDAELDNVNNVLRTDLDGLVQQGYQSLNDIPDRVQRQTTTVVAGIKRVLNSIGSDIDNVTQRLPIQDILSAFSVYVNNTESYIHRNLPTLEEYDSYWWLGGLVICSLLTLIVIFYYLGLLCGVCGYDRHATPTTRGCVSNTGGVFLMVGVGLSFLFCWILMIIVVLTFVFGANVEKLICEPYTSKELFRVLDTPYLLNEDWEYYLSGKLFNKSKMKLTFEQVYSDCKKNRGTYGTLHLQNSFNISEHLNINEHTGSISSELESLKVNLNIFLLGAAGRKNLQDFAACGIDRMNYDSYLAQTGKSPAGVNLLSFAYDLEAKANSLPPGNLRNSLKRDAQTIKTIHQQRVLPIEQSLSTLYQSVKILQRTGNGLLERVTRILASLDFAQNFITNNTSSVIIEETKKYGRTIIGYFEHYLQWIEFSISEKVASCKPVATALDTAVDVFLCSYIIDPLNLFWFGIGKATVFLLPALIFAVKLAKYYRRMDSEDVYDDVETIPMKNMENGNNGYHKDHVYGIHNPVMTSPSQH
B2: CD133 (prominin-1): N220Q (protein)
parent chain: B1 parent chain
B3: CD133 (prominin-1): N730Q (protein)
parent chain: B1 parent chain
B4: CD133 (prominin-1): N548Q (protein)
parent chain: B1 parent chain
B5: CD133 (prominin-1): N580Q (protein)
parent chain: B1 parent chain
B6: CD133 (prominin-1): N274Q (protein)
parent chain: B1 parent chain
B7: CD133 (prominin-1): N414Q (protein)
parent chain: B1 parent chain
B8: CD133 (prominin-1): N729Q (protein)
parent chain: B1 parent chain
B9: CD133 (prominin-1): N395Q (protein)
parent chain: B1 parent chain

experiment: immunofluorescence with ER dye, HEK293T; details: glycan lost; control: wild-type CD133

localisation_or_trafficking, no change:
B1
B2
B3
B4
B5
B6
B7
B8
B9

experiment: surface flow cytometry, HEK293T and HepG2; details: glycan lost; control: wild-type CD133

localisation_or_trafficking, no change:
B1
B2
B3
B4
B5
B6
B7
B8
B9

experiment: anti-CD133 western blot, HEK293T lysates; details: glycan lost; control: wild-type CD133

expression_or_secretion, no change:
B1
B2
B3
B4
B5
B6
B7
B8
B9

experiment: FLAG IP, PY828 blot, HEK293T with Src; details: glycan lost; control: wild-type CD133

other: Y828 phosphorylation, no change:
B4

Reference: PMC4653032
